{"source": "patent US20210188916A1", "about": "(INDUSTRY UNIVERSITY COOPERATION FOUNDATION HANYANG …, published 2021)", "key": {"[1]": {"molecular_target": "T1, ATP5C1 (endogenous, HCT116 human colon cancer cells) (human, UniProt P36542 26-298)", "T1 construct": "Endogenous protein in cell or tumor lysates", "T1 sequence": "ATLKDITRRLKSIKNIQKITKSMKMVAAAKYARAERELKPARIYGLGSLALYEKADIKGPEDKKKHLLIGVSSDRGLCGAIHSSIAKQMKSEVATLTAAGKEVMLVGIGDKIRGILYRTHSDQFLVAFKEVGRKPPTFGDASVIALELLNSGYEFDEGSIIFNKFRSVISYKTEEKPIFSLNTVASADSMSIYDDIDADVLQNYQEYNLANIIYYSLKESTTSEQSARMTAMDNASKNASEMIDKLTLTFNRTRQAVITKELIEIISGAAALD", "assay": "interaction analysis by immunoblot in HCT116 xenograft tumor lysates of treated mice (FIG. 6A, bottom)"}, "[2]": {"molecular_target": "T2, ATP5A1 (endogenous, HCT116 human colon cancer cells) (human, UniProt P25705 44-553)", "T2 construct": "Endogenous protein in cell or tumor lysates", "T2 sequence (P25705 44-553 limits assumed)": "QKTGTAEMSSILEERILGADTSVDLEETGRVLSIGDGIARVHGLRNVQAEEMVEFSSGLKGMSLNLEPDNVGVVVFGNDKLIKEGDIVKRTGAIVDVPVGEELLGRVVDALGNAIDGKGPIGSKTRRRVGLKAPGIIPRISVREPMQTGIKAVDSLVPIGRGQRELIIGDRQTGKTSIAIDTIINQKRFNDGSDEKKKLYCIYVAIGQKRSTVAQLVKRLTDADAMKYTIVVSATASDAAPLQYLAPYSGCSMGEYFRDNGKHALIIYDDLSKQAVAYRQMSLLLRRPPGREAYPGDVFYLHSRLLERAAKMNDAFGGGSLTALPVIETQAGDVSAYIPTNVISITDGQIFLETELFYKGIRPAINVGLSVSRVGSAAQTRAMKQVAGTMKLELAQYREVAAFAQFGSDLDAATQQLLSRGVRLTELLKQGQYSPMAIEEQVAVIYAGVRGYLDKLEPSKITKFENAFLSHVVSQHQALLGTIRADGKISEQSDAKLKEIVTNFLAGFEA", "assay": "interaction analysis by immunoblot in HCT116 xenograft tumor lysates of treated mice (FIG. 6A, bottom)"}}, "data": [{"binder": "rATRAM-GRA8-M/AS (6x His-tagged ATRAM-conjugated multifunctional GRA8 peptide) (also called rATRAM-G8-M/AS; 6x His-rATRAM-GRA8-M/AS; not shown: N-terminal 6x His tag from the pRSFDuet-1 vector) GLAGLAGLLGLEGLLGLPLGLLEGLWLGLELEGNGLAGLAGLLGLEGLLGLPLGLLEGLWLGLELEGNGGATATTTTTTRGGYRFTVQTTQN", "values": [{"measurement": "binding result", "setting": "[1]", "value": "binds"}, {"measurement": "binding result", "setting": "[2]", "value": "binds"}]}]}
